Experimental findings from the supplement of paper PMC9170038 are described below.

The data set concerns MS2 coat protein. As to the kind of experiment: apparent KD of MS2 coat protein; designed switch direction (-1 OFF switch, 1 ON switch): -1; higher = weaker reporter binding. The essentials:
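On Illumina chips, designed RNA switches with common flanks were made by stalled E. coli RNA polymerase. Titrations with SNAP-549-labelled MS2 coat protein, doubling from 0.7 or 1.5 nM to 3 µM, were done with no input, with 200 uM small-molecule ligand, or with an oligonucleotide input. Apparent KD is the median per design over clusters, from curve fits of normalised cluster fluorescence.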

[1] abbreviates: input ligand: microRNA oligo, concentration not stated.
The mark [2] stands for this setting: Eterna round: R95, input ligand: microRNA oligo, concentration not stated.

On to “CUUUUGUGAGGAUAUUAGUAGUAAAUAAAUAAAAUUACUACUGAGAAGGCACAUGAGGAUCACCCAUGUUCCUC [salish99_ex4_r3_041] (Eterna round: R96, puzzle: Exclusion 4)”, for which the “apparent KD of MS2 coat protein” value by setting is: (input ligand: FMN 200 uM) 424 nM; under setting [1], 32.8 nM; (input ligand: none) 35.4 nM.

On to “ACAAGCUCUUUGCAACUUAGUUUUGUUGCUUCGUAGGUAACAUGAGGAUCACCCAUGUAAGACUGAUGUCGUCUUAU [JR_SV3TOV2_Sub086] (puzzle: Sensor v3, turn-off variant 2)”, for which the “apparent KD of MS2 coat protein” value (Eterna round: R95, input ligand: FMN 200 uM) came to 33.1 nM; the “apparent KD of MS2 coat protein” value under setting [2] turned out to be 21.4 nM; the “apparent KD of MS2 coat protein” value (Eterna round: R95, input ligand: none) worked out at 36.8 nM.

As to “UGUGUGAGACAGGAUAUGCCGGUUGUAUUACUGGUAGAAGGGUCUACAUGAGGAUCACCCAUGUGGCCGGCCGG [Ex6 #82] (Eterna round: R97, puzzle: Exclusion 6)”, the “apparent KD of MS2 coat protein” value came to 73.1 nM (input ligand: FMN 200 uM) and 26.2 nM (input ligand: none).

Consider “UAAUUGUGAGGAUAUCUGGCUUCGAUCGUGAGAUCGAGGCUAGAGAAGGCACAUGAGGAUCACCCAUGUUCCUU [jl-ex4-4.10 salish99 mod] (Eterna round: R97, puzzle: Exclusion 4)”, for which the “apparent KD of MS2 coat protein” value turned out to be 85.2 nM (input ligand: FMN 200 uM) and 21.5 nM (input ligand: none).

“UAAGCUACUGUCAGGAUAUCGUAAUUGGUGAACGACGAGAAGGGACAUGAGGAUCACCCAUGUCGAUGACUGGG [Eternabot (L2) Solution 97] (Eterna round: R97, puzzle: Brourd's mod of Exclusion 4)”: the “apparent KD of MS2 coat protein” value (input ligand: FMN 200 uM) was determined as 386 nM and the “apparent KD of MS2 coat protein” value (input ligand: none) stood at 200 nM.

With “UUUGCAAGCUUAUGAUCCCACAUGAGGAUCACCCAUGUUGCUGCCGGUGACGGUAGCAUAACAUAUGCUCGUCUUAU [JL TOV1 3.63] (Eterna round: R97, puzzle: Sensor, turn-off variant 1)”, the “apparent KD of MS2 coat protein” value runs as follows: (input ligand: FMN 200 uM) 791 nM; (input ligand: none) 1170 nM.

With “AAAACACAUGAGGAUCACCCAUGUGAGGAUAUGUCCAUGCUCGGCAAACCGGGCAUGGACAGAAGGCACAUAAA [JR_Exclusion1_Sub015] (puzzle: Exclusion 1)”, the “apparent KD of MS2 coat protein” value under setting [2] is 40.3 nM.

On to “AACAUGUGAGGAUAUUAUCACAAAGGCGUAGAAAUACGCGAUAAGAAGGCACAUGAGGAUCACCCAUGUUCCGA [EX4 A.24] (Eterna round: R97, puzzle: Exclusion 4)”, for which the “apparent KD of MS2 coat protein” value by setting is: (input ligand: FMN 200 uM) 66.8 nM; (input ligand: none) 17.5 nM.

For “GAUUUGUAAGGAUAUCGUGCAAGUUUCAAAAGAGGCUUGUGCGAGAAGGUACAUGAGGAUCACCCAUGUAGGUU [Omei Ex4 B13] (Eterna round: R97, puzzle: Exclusion 4)”, the “apparent KD of MS2 coat protein” value by setting is: (input ligand: FMN 200 uM) 42.6 nM; (input ligand: none) 24.1 nM.

“UAUGGUUAAGUCAGGAUAUACAAAUAGAAAUCUGAGUAGAAGGGACAUGAGGAUCACCCAUGUAUGGUAGUGUU [Ex4 #57] (Eterna round: R97, puzzle: Brourd's mod of Exclusion 4)”: the “apparent KD of MS2 coat protein” value is, setting by setting: (input ligand: FMN 200 uM) 79 nM; (input ligand: none) 74.3 nM.

For “ACAUGAGGAUCACCCAUGUACAGGGUUUAGUUUCAUCGUUUGAAGGAUAUACUCCGUUAGUUGUUGUAGAAGGUCACAUUUUGG [JR_ExcNG3_Sub005] (Eterna round: R96, puzzle: Exclusion NG 3)”, the “apparent KD of MS2 coat protein” value (input ligand: FMN 200 uM) came out at 167 nM, the “apparent KD of MS2 coat protein” value under setting [1] came out at 89.2 nM and the “apparent KD of MS2 coat protein” value (input ligand: none) was found to be 142 nM.

For the sequence “UCAUAACAUGAGGAUCACCCAUGUCAGGAUAUGAUACUAUGUACUUCGGUACAUAGUAUCAGAAGGGACAUACU [Ex1-3: 12] (puzzle: Exclusion 1)”, the “apparent KD of MS2 coat protein” value under setting [2] amounted to 103 nM.

As for “CAGGUGUUAGGAUAUCGGAGAUCGAGACCGACGGGAUGAGCCGAGAAGGAACAUGAGGAUCACCCAUGUAGGUG [JR_Exclu4_Sub034] (Eterna round: R96, puzzle: Exclusion 4)”, under setting [1], the “apparent KD of MS2 coat protein” value is 304 nM.

On to “ACUUGUGUUGAGGAUAUGCGACGCAACGGUGGAGCAGAAGGCGGCACAUGAGGAUCACCCAUGUCAGUUCGCGA [eternacac ex6r4 sub33] (Eterna round: R97, puzzle: Exclusion 6)”, for which the “apparent KD of MS2 coat protein” value by setting is: (input ligand: FMN 200 uM) 86.3 nM; (input ligand: none) 14.6 nM.

With “GUAAUUAAUGUAGGAUAUGCAAGGCGAACCUAAGCAGAAGGACAUGUGGAUCACCCAUGUAAACAUGAGGAUCACCCAUGUGCU [salish99_ExNG1_r4_006] (Eterna round: R96, puzzle: Exclusion NG 1)”, the “apparent KD of MS2 coat protein” value (input ligand: FMN 200 uM) came to 1320 nM, the “apparent KD of MS2 coat protein” value under setting [1] was 1340 nM and the “apparent KD of MS2 coat protein” value (input ligand: none) worked out at 4270 nM.

Turning to “CCACGUCUGCAGGAUAUCAGAUUGUAAGAUCGAUGAGAAGGGCAGACAUGAGGAUCACCCAUGUCCGCCACCAA [EX6 C.10] (Eterna round: R97, puzzle: Exclusion 6)”, the “apparent KD of MS2 coat protein” value runs as follows: (input ligand: FMN 200 uM) 20.6 nM; (input ligand: none) 20.6 nM.

Regarding “ACAUGAGGAUCACCCAUGUCAGGCAGGUCCACUCCGGCUGUUGAGGAUAUAGCCCGGUAUCCGCGCUAGAAGGUGAGGGCCGGC [Aenatbe mod 26] (Eterna round: R96, puzzle: Exclusion NG 3)”, the “apparent KD of MS2 coat protein” value was 15.3 nM (input ligand: FMN 200 uM), 15.7 nM under setting [1] and 21.6 nM (input ligand: none).

Regarding “AACACUGUAGGAUAUCAUGAACUGGACUUGAGGAUCACCCAAGUGUAUCGUGGAGUGCCGUGAGAAGGACGGAUUA [Erleen] (Eterna round: R97, puzzle: Exclusion 5)”, the “apparent KD of MS2 coat protein” value is, setting by setting: (input ligand: FMN 200 uM) 28.1 nM; (input ligand: none) 27.2 nM.

Consider “UUGGUUGUGGUAGGAUAUCCGUUGGAAACCUUCGGAGAAGGACCACAGUCACUGGGUCUUUGUCUGGUGGACGGUUUCGACCGU [pwkr exNG1 F6.23] (Eterna round: R96, puzzle: Exclusion NG 1)”, for which the “apparent KD of MS2 coat protein” value came to 202 nM (input ligand: FMN 200 uM), 281 nM under setting [1] and 559 nM (input ligand: none).

Consider “UAAAUUGGGUAGGAUAUGUUUGUUUAAAGAGCCACAGAAGGACCCACAUGAGGAUCACCCAUGUAUCACCUAUG [Eternabot (L2) Solution 60] (Eterna round: R97, puzzle: Exclusion 6)”, for which the “apparent KD of MS2 coat protein” value (input ligand: FMN 200 uM) was found to be 33.6 nM and the “apparent KD of MS2 coat protein” value (input ligand: none) amounted to 27.1 nM.

“ACAUGAGGAUCACCCAUGUGACAAUAAUGGCUGAUACAGAGACAGGAUAUACGUGAAUAUCUAACGUAGAAGGGUCAUGACUGG [Deportation 70 - Jieux - Exclusion NG 3] (Eterna round: R96, puzzle: Exclusion NG 3)”: the “apparent KD of MS2 coat protein” value reads like this: (input ligand: FMN 200 uM) 30.5 nM; under setting [1], 35.8 nM; (input ligand: none) 41.9 nM.

For the sequence “AUGGUUCGAUUAGGAUAUUAUAGAUUGAAUAGUAUGAUUUACAUGAGGAUCACCCAUGUUACAUUUAAGAAGGAAUCGAAUCAU [JR_ExcNG2_Sub088] (Eterna round: R96, puzzle: Exclusion NG 2)”, the “apparent KD of MS2 coat protein” value by setting is: (input ligand: FMN 200 uM) 13.9 nM; under setting [1], 13.2 nM; (input ligand: none) 21.5 nM.

Turning to “AGAUCGUCAGGAUAUACAUGAGGAUCACCCAUGUAUAGUCUAAAUUUGACUAUAAAGUGUAGAAGGGACGAUCG [Exclusion 3 (MOD6 of #1 Marzena11)] (Eterna round: R97, puzzle: Exclusion 3)”, the “apparent KD of MS2 coat protein” value by setting is: (input ligand: FMN 200 uM) 51.5 nM; (input ligand: none) 18.1 nM.
